Assays:
[1] = test system: SP-1 zinc finger domain (Homo sapiens); assay: EMSA; settings: target sequence not given
Zif268 = assay: EMSA; settings: target sequence not given; literature 2-30 nM; cited from earlier work
ZFP3A-VP16 / KRAB-ZFP3A = target: T1, ZFP3A-VP16 / KRAB-ZFP3A (artificial, UniProt P08047); assay: cell_activity; VP16 fusion on cotransfected reporter; KRAB fusion lowered hKCa4 conductance to 1.0 nS vs 10.0 for empty vector; settings: tags: VP16 or KRAB fusion
T1 chain: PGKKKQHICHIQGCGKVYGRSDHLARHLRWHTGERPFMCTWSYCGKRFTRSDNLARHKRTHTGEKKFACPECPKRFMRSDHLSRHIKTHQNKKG

VEGF3a/1 six-finger ZFP = target: T2, VEGF3a/1 six-finger ZFP (artificial (human SP-1 backbone)); assay: competition; half-life of complex relative to VEGF1, EMSA competition at 37 C; settings: tags: MBP N-terminal fusion; label: 5' 32P
T2 chain: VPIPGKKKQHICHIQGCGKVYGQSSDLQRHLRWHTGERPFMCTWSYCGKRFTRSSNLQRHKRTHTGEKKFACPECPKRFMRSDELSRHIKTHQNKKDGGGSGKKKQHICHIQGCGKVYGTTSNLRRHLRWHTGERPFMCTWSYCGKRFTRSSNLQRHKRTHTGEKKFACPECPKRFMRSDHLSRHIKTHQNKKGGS
Experimental: For the EMSA studies, 20 μl binding reactions contained 10 fmole (0.5 nM) 5′ ³²P-labeled double-stranded target DNA, 35 mM Tris HCl (pH 7.8), 100 mM KCl, 1 mM MgCl₂, 5 mM dithiothreitol, 10% glycerol, 20 μg/ml poly dI-dC, 200 μg/ml bovine serum albumin, and 25 μM ZnCl₂. Protein was added as one fifth volume from a 3-fold dilution series. Binding was allowed to proceed for 60 min at either room temperature or 37° C. Polyacrylamide gel electrophoresis was carried out at room temperature or 37° C. using precast 10% or 10-20% Tris-HCl gels (BioRad) and standard Tris-Glycine running buffer. The room temperature assays yielded an apparent Kd for this VEGF3a/1 protein of approximately 1.5 nM. Thus, the 18-bp binding ZFP bound with high affinity to its target site. […] When binding and electrophoresis were performed at 37° C., the apparent Kd of VEGF3a/1 was approximately 9 nM when tested against the 18-bp target, compared to a Kd of 40 nM for VEGF1 tested against its target.
The apparent Kd is a useful measure of the affinity of a protein for its DNA target. However, for a DNA binding site either in vitro or in vivo, its occupancy is determined to a large extent by the off-rate of the DNA-binding protein. This parameter can be measured by competition experiments. The conditions for EMSA were as described above; binding and electrophoresis were performed at 37° C. […]

Molecule: SP-1 target site
- Kd [1]: 65 nM

Molecule: Zif268 target site
- Kd (Zif268): 60 nM

B1: hKCa4 target site (dsDNA)
DNA 1: GGGGAGGGC
DNA 2: GCCCTCCCC
- activity (ZFP3A-VP16 / KRAB-ZFP3A): > 5 fold activation

B2: VEGF 18-bp target JVF9/JVF10 (dsDNA)
DNA 1: AGCGAGCGGGGAGGATCGCGGAGGCTTGGGGCAGCCGGGTAG
DNA 2: CGCTCTACCCGGCTGCCCCAAGCCTCCGCGATCCTCCCCGCT
- binding signal (VEGF3a/1 six-finger ZFP): > 10 fold
